Test results reported in paper PMC10104473.

Target: TEA domain transcription factor 1 (TEAD1) on the HuProt Human Proteome Microarray v3.1 (human) (UniProt P28347)
Assay: peptide or protein array; purified FLAG-Lamin A/C (WT or Q353R) applied to a HuProt Human Proteome Microarray v3.1; two samples each, averages of the pairs compared

Chain of UniProt P28347 (P28347 whole entry, the tested form may be a part): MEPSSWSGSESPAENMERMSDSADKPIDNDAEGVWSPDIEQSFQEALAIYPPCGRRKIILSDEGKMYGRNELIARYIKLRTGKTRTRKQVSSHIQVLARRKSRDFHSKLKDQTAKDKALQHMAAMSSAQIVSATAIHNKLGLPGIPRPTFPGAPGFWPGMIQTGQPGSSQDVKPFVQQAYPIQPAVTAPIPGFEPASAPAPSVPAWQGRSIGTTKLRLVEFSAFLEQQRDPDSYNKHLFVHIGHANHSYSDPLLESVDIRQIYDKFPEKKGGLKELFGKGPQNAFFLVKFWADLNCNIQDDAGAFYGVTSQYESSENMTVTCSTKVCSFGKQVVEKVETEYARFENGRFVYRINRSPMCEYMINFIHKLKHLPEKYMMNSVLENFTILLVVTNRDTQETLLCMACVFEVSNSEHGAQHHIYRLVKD

FLAG-tagged Q353R Lamin A/C (from UniProt P02545 1-646) (natural protein)
fold affinity against WT Lamin A/C: 8 fold
